Numbering of substitutions follows the chain as printed.

Holding throughout (assay): EMSA
What all share (conditions): 60 mM HEPES-KOH pH 7.5, 25 mM MgCl2, 5 mM EDTA, 300 mM KCl, 50 µg/ml BSA, 3 mM DTT, 24 ng labeled DNA, 20 min, room temperature
In general terms: In EMSA bound probe runs differently from free probe, usually more slowly.

In data set [1] the target is T1, Cra WT (Escherichia coli EHEC TUV93-0) (UniProt P0ACP1).
T1 sequence: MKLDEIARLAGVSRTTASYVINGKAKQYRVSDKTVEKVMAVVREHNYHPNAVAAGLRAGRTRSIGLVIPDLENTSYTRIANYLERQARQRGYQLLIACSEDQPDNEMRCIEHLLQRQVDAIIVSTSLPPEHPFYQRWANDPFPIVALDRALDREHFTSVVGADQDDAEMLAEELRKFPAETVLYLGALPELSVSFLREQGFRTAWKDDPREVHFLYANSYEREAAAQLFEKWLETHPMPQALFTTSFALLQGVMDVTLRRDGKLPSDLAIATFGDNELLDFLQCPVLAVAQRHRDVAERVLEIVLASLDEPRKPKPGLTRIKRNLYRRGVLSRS

Data set [2] has as its target T2, Cra Y47E Y47E (Escherichia coli EHEC TUV93-0) (UniProt P0ACP1).
T2 sequence: T1 sequence with Y47E

Data set [3] has as its target T3, Cra Y47F Y47F (Escherichia coli EHEC TUV93-0) (UniProt P0ACP1).
T3 sequence: T1 sequence with Y47F

Data set [4] deals with Cra WT (Escherichia coli EHEC TUV93-0).
In data set [5] the test system is Cra Y47F (Escherichia coli EHEC TUV93-0).
A further data set concerns LacI WT, ORF:a00089fe.
Data set [6] concerns LacI Y47E Y47E, ORF:a00089fe.
Data set [7] relates to LacI Y47F Y47F, ORF:a00089fe.
For data set [8], the target named is T4, PurR WT (Escherichia coli (TUV93-0?)) (UniProt P0ACP7).
T4 sequence: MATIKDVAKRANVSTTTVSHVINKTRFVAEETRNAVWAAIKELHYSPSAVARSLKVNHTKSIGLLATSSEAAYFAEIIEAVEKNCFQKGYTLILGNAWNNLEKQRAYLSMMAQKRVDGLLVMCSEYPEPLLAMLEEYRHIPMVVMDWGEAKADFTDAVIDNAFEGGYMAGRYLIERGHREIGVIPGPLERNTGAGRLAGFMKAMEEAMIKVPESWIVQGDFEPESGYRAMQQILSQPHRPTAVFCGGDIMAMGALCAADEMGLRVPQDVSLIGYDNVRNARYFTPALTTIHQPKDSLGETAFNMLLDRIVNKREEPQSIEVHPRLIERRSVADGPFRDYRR

In data set [9] the target is T5, PurR Y45E Y45E (Escherichia coli (TUV93-0?)) (UniProt P0ACP7).
T5 sequence: T4 sequence with Y45E

For data set [10], the target named is T6, PurR Y45F Y45F (Escherichia coli (TUV93-0?)) (UniProt P0ACP7).
T6 sequence: T4 sequence with Y45F

For “CACCTCCTAACTACTTAAAATTGCTATCATTCGTTATTGTTATCTAGTTGTGCAAAACATGCTAATGTAGCCACCAAATCATACTACAATTTATTAACTGTTATCTATAATGGCGAAAAGCGATGCTGAAAGGTGTCAGCTTTGCAAAAATTTGATTTGGATCACGTAATCAGTACCCAGAAGTGAGTAATCTTGCTTACGCCACTTGGAAGTGACGCATTAGAGATAATAACTCTAATGTTTAAACTCTTTTAGTAAATCACAGTGAGTGTGTGCGC (double strand) [adhE regulatory fragment]”, the binding entry in data set [1] is “binds”; in [2] it was “no binding”; in data set [3], “binds”.
In the case of “CATGTGCTGCGACTGCGTTCGCTTACCCCAATCACTTACTTATGTAAGCTCCTGGGGATTCACTCGCTTGCCGCCTTCCTGTAACTCGAATTAAGTAGAGTATAGTGAAACGGTTCAGCTTGGTTTTTATTCTGTTTTATTTGTTTATGCAATGAGATCTATCTTATAAAGAGAAACGCTTAACTAAATGGAAATGC (double strand) [LEE1 (ler) regulatory fragment]”, the dissociation constant Kd – broadly, a measure of binding affinity in units of concentration – in data set [1] amounted to 111 nM; in data set [3], 130 nM. Besides, the binding entry in [1] is given as “binds”; in data set [2], “no binding”; in data set [3], “binds”.
In the case of LEE1 (ler) regulatory fragment, in data set [4], the Kd was found to be 111 nM and the binding signal (% reduction of binding vs no metabolite) amounted to 33. For the same substance, in data set [5], the Kd was found to be 130 nM and the binding signal (% reduction of binding vs no metabolite) turned out to be 33.
Turning to “CGACGGCCAGTGAATCTGTAATCATAGTCATAGCTGTATCCTGTGTGAAATTGTTATCCGCTCACAATTTCACACAACATACGAGCCGGACGCATAGAGTGTAAAGCGTGGGGTGCCTAATGAGTGAGCTGACTCACATTAATTGCGTTGCGCTCACTGCCCGCTTTCCAGTCGGGAAACTTGTCGTGCCAGCTGCATTAATGAATCG (double strand) [lacO1O3 fragment]”, the binding result in the data set with LacI WT, ORF:a00089fe was “binds”; in data set [6], “no binding”; in data set [7], “binds”.
Consider “TTTACGGCTTTCCTTGCGTGCTGAAACAGAAGTATTATGCTTTCTTGAAACGTTTCAGCGCGATCTTGTCTTTAACCCTAAGCCAGGTTGGCGCTTTTTTTCTCATAGAAGCTGAATCGTTTCAATTCAGCAAGAGAGGAGAACTATGTTCCAGTTATCCGTACAGGACATCCATCCGGGCGAAAAGGCCGGAGACAAAGAAGAGGCGATTCGCCAGGTCGCTGCGGCGCTGGTGCAGGCCGGTAATGTAGCAGAAGGCTACGTCAATGGCATGCTG (double strand) [fruB regulatory fragment]”, for which the binding entry in data set [1] is on record as “binds”; in [2] it was “no binding”; in data set [3] it was “binds”.
“CGTAATCAATCCAGACCATATGTGTCCCACGATTTTACGCCCTGTCATCCTGTTCGGGGGCGCATTCTAACAGAAAAAGAAAACGTTTGCGTAGGGATTTCCTTCCCGCGCATCAATAAAAATGGCGCTGAAAAAATATTCAACGCCATCGACTTTTTATGCCTTTGCGGCATCGGACAATGCGTGTCGGATGCGGCGTAAACGTCTTATCCGACCTACGGTTCTACC (double strand) [purF-cvpA regulatory fragment]”: the binding entry is on record as “binds” in data set [8], “no binding” in [9] and “binds” in data set [10].
